{
  "source": "patent US11905559B2",
  "about": "“Materials and methods for controlling gene expression” (priority 2016, dated 2024)",
  "molecules": {"B1": {"name": "wt: 69-nucleotide full-length wild-type guanine sensing aptamer RNA sequence from xpt-pbuX operon in B. subtilis (SEQ ID NO: 1) (nucleic acid)", "chain": "CACUCAUAUAAUCGCGUGGAUAUGGCACGCAAGUUUCUACCGGGCACCGUAAAUGUCCGACUAUGGGUG", "modifications": "RNA, backbone and methylation of C not given here"}},
  "assay": "Force-ramp mechanical unfolding-refolding of the guanine-aptamer (optical tweezers)",
  "type": "physicochemical",
  "settings": "for Unfolding force of the aptamer / Observed nucleotides / Observed ΔXobs: +1 μM guanine, force-ramp; for Observed nucleotides / Observed ΔXobs: complete aptamer (69 nt), 18 pN",
  "procedure": "A 69 nucleotide (nt) guanine-sensing aptamer (FIGS. 3 and 4A-B) from xpt-pbuX operon in B. subtilis was used for mechanical unfolding-refolding studies. In the experimental set up shown in FIGS. 2A-E, a single molecule of the guanine-aptamer RNA was clamped between two polystyrene beads through RNA-DNA handles. […] Considering the inter-nucleotide distance as 0.448 nm at 18 pN, then using a serial worm-like chain equation\nThe forces on the bead were recorded at an acquisition rate of 44 kHz. Data was collected from the stereo phone jacks on the ADC boards of the Tweezers instrument and sent to the host computer audio input for analysis by SignalScope program (Faber Acoustical, LLC). As shown in the plot, power spectral density is fitted with the Lorentzian fit to yield the corner frequency (fc) that was used to calculate the trap stiffness. This setup was used to perform three different mechanical reactions: force-ramp (FR), constant-force (CF) and force-jump (FJ) under a controlled force. In the force-ramp (FR) experiment, the trap was moved at 200 nm/s, which corresponded to a loading rate 7-8 pN/s. […] The force-ramp data is plotted as force vs. extension curves (FEC).\nIn the force-ramp experiment, the trap was moved away (pull cycle) from the micropipette at 200 nm/sec, which corresponded to a loading rate of 7-8 pN/sec. This movement of the trap exerted a tension at the ends of the tethered RNA aptamer. […] In the constant-force (CF) experiment, the RNA was held at a preset force (FIG. 6A). The loading rate in CF experiments was zero. The preset force typically fluctuated around the mean with standard deviation ±0.15 pN. The force-ramp and the CF experiments were carried out at an ambient temperature 25±0.5° C. in buffer containing 10 mM Tris-HCl, pH 7.5 at 250 mM NaCl, 3 mM MgCl2 unless mentioned otherwise.",
  "key": {"[1]": {"settings": "200 nM guanine, sequential unfolding"}},
  "data": [
    {"molecule": "B1", "values": [
      {"measurement": "Force at which P1 melted", "setting": "[1]", "value": "5-10 pN"},
      {"measurement": "Force at which P2, P3 unfolded", "setting": "[1]", "value": "12-15 pN"},
      {"measurement": "Unfolding force of the aptamer", "setting": "listed as guanine-aptamer", "value": "18.6±1.1", "unit": "pN"},
      {"measurement": "Unfolding force of the aptamer", "setting": "listed as isolated aptamer", "value": "~18.0", "unit": "pN"},
      {"measurement": "Observed nucleotides", "value": "67.1 ± 2"},
      {"measurement": "Observed ΔXobs", "value": "30.2 ± 1.0", "unit": "nm"},
      {"measurement": "Observed nucleotides", "setting": "listed as 69 nt-aptamer", "value": "67±2"},
      {"measurement": "Observed ΔXobs", "setting": "listed as guanine-aptamer", "value": "30.2±1", "unit": "nm"},
      {"measurement": "Observed ΔXobs", "setting": "listed as isolated aptamer", "value": "~30", "unit": "nm"}
    ]}
  ]
}
